By Kd is commonly meant the concentration at which binding is half-saturated.

The first data set has as its target T1, YtrASa (Sulfolobus acidocaldarius) (UniProt Q4J7S4).
T1 sequence: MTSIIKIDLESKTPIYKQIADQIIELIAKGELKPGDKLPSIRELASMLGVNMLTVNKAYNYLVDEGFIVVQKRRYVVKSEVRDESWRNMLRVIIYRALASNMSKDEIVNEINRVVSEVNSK
Briefly: EMSA. As to conditions: 20 mM Tris-HCl pH 8.0, 1 mM MgCl2, 0.1 mM DTT, 12.5% glycerol, 50 mM NaCl, 0.4 mM EDTA, 37 C; ~0.1 nM 32P-DNA, excess non-specific competitor DNA; 6% native …. On the technique in general: Mobility shift assays separate free from complexed probe on a gel.
“TCGTCAACAACCTATATAAGCCATAACTTTAAATAAGGATATTGTTATATTTGTTATATGACAAATATGTTTTCATTACTCTACCCGCTAATCTCCATAG (double strand) [Saci_2078 target, 100 bp]” returned a Kd of 34 nM.
“GTTTTGAGTACAACCTAACCCATTATACTAAATAAGGTTTATTTATTTTAGTAACTTTTAGAAATTATGCAAGATCTTTTTTGGGAAAGTGCAAATTGCCTTGAGGGAAAAGGTCTGCAA (double strand) [Saci_2168 target]”: the binding result was “no binding”.
Still for that read-out and setting: then “AACTGCGGTGAATAAAGTAGGGTGTTTGATTTTTGCCAAAGAAGAGGGAGAATAGAGGAAGAAGAAAGGGCGACAAAGGACACGTTGGTAGCATACATTGTGACCA (double strand) [Saci_1554 target]”, with “binds more weakly”; and “AGCAACACCAAAGGATTGAATTTCATTTCTATCCCTGTTTGACTTAAAGCAAGACTCTTGAATAAAAAATATAATTTAGAGGTTTACTAAAAACAAACCGTGAACGTAGGAAGA (double strand) [Saci_0871 target]”, with “no binding”.
Same read-out and setting: then “TCCTGAAGGCCTAAAAGAGTACATTCTAGACCTTTCCGCATAAAACTTAGGTAGGGCTAGGCATAATGCAAAAGCCCTCAAACTTTTCATTAAAGAAGTGATT (double strand) [Saci_0677 target]”, with “no binding”.
Same read-out and setting: then “AAAATGGGAGAGTAATCGGTTTTTATTGAGACTTCGCAATACGATATATATGGATACAAAAGTTGTAATTAGAAGAGATCAGTGGAAACCAGGATCGGCGATGGAAATAAAGCGAGGCGT (double strand) [Saci_1234 target]”, with “no binding”; and “GGGAAAGGATATTGGGGAAATATTAAAAATACTGGGTTGAAGTTTAAACTTGTGTTTAAACAACTAATAATTAAATATTTTGGGATAATATCTGTTGTAATCCTTGCAACAATAATCTC (double strand) [Saci_0421 target]”, with “no binding”.
Turning to ytrASa (Saci_1851) target, 102 bp, the Kd was determined as 37 nM.
In the case of “CTTACCTTTTATAGTAGGTAAATAAGGTTTTTATTCCCCTAAATCATATATTTGCTATATGACAAGTATAATAAAAATCGACCTAGAGTCCAAGACTCCCATC (double strand) [ytrASa (Saci_1851) target, 102 bp]”, the dissociation constant (Kd) was 37 nM and the binding entry is “binds”.
On to Saci_2078 target, 100 bp, for which the Kd turned out to be 34 nM.

The next data set has as its target T1, YtrASa (Sulfolobus acidocaldarius). Nature of the data set: DNase I footprinting. Conditions: 20 mM Tris-HCl pH 8.0, 1 mM MgCl2, 0.1 mM DTT, 12.5% glycerol, 50 mM NaCl, 0.4 mM EDTA, 37 C; ~0.1 nM 32P-DNA, excess non-specific competitor DNA; 6% native ….
As for “TCGTCAACAACCTATATAAGCCATAACTTTAAATAAGGATATTGTTATATTTGTTATATGACAAATATGTTTTCATTACTCTACCCGCTAATCTCCATAG (double strand) [Saci_2078 target, 100 bp]”, the binding entry was “binds”.
Consider “CTTACCTTTTATAGTAGGTAAATAAGGTTTTTATTCCCCTAAATCATATATTTGCTATATGACAAGTATAATAAAAATCGACCTAGAGTCCAAGACTCCCATC (double strand) [ytrASa (Saci_1851) target, 102 bp]”, for which the binding result is on record as “binds”.

The values above are taken from paper PMC6746942.
